For the test, the target named is SPR-8: ASARM-PO4 biotin. In words: SPR (Biacore 3000): biotinylated ASARM-PO4 captured on neutravidin, PHEX as analyte.

“PHEX (free soluble-PHEX analyte) (from UniProt P78562 46-749) (enzyme)” came in with a Kd of 0.168 µM. This lies in the sub-micromolar range.

The values above are taken from US20080076717A1.
